{
  "source": "patent US12528864",
  "data": [
    {"target": "human CD96, native, on primary human T cells (human) (UniProt P40200)", "test": "flow cytometry on primary human CD3+ T cells", "units": {"EC50": "nM"}, "values": [
      {"binder": "42Y073-86F08-3 (antibody, V domains shown) VH: QVQLVQSGAEVKKPGSSVKVSCKASGGTFVNYAISWVRQAPGQGLEWMGGIIPALGTANYAQKFQGRVTITADESTSTAYMELSSLRSEDTAVYYCARGAGYYGDKDPMDVWGQGTTVTVSS VL: DIQLTQSPSSLSASVGDRVTITCRASQSISSYLNWYQQKPGKAPKLLIYAASSLQSGVPSRFSGSGSGTDFTLTISSLQPEDFATYYCQQVLHTITFGGGTKVEIK", "EC50": 0.05},
      {"binder": "42Y073-86F08-22 (antibody, V domains shown) VH: QVQLVQSGAEVKKPGASVKVSCKASGYTFDSYAMHWVRQAPGQGLEWMGGIIPIFGTAWYAQKFQGRVTITADESTSTAYMELSSLRSEDTAVYYCARGAGYYGDKDPMDVWGQGTTVTVSS VL: DIQLTQSPSSLSASVGDRVTITCRASQSISSYLNWYQQKPGKAPKLLIYAASSLQSGVPSRFSGSGSGTDFTLTISSLQPEDFATYYCQQVLHTITFGGGTKVEIK", "EC50": 0.18},
      {"binder": "42Y073-86F08-17 (antibody, V domains shown) VH: QVQLVQSGAEVKKPGSSVKVSCKASGGTFREYAISWVRQAPGQGLEWMGGIIPVFGTANYAQKFQGRVTITADESTSTAYMELSSLRSEDTAVYYCARGAGYYGDKDPMDVWGQGTTVTVSS VL: DIQLTQSPSSLSASVGDRVTITCRASQSISSYLNWYQQKPGKAPKLLIYAASSLQSGVPSRFSGSGSGTDFTLTISSLQPEDFATYYCQQVLHTITFGGGTKVEIK", "EC50": 0.01},
      {"binder": "42Y073-86F08-4 (antibody, V domains shown) VH: QVQLVQSGAEVKKPGSSVKVSCKASGGTFSEYAIHWVRQAPGQGLEWMGNIIPIFGTAGYAQKFQGRVTITADESTSTAYMELSSLRSEDTAVYYCARGAGYYGDKDPMDVWGQGTTVTVSS VL: DIQLTQSPSSLSASVGDRVTITCRASQSISSYLNWYQQKPGKAPKLLIYAASSLQSGVPSRFSGSGSGTDFTLTISSLQPEDFATYYCQQVLHTITFGGGTKVEIK", "EC50": 0.01},
      {"binder": "42Y073-86F08-8 (antibody, V domains shown) VH: QVQLVQSGAEVKKPGSSVKVSCKASGGTFWLYAISWVRQAPGQGLEWMGGIIPQLGTANYAQKFQGRVTITADESTSTAYMELSSLRSEDTAVYYCARGAGYYGDKDPMDVWGQGTTVTVSS VL: DIQLTQSPSSLSASVGDRVTITCRASQSISSYLNWYQQKPGKAPKLLIYAASSLQSGVPSRFSGSGSGTDFTLTISSLQPEDFATYYCQQVLHTITFGGGTKVEIK", "EC50": 0.04},
      {"binder": "42Y073-86F08-47 (antibody, V domains shown) VH: QVQLVQSGAEVKKPGSSVKVSCKASGGTFSQYAIHWVRQAPGQGLEWMGVIIPIFGKANYAQKFQGRVTITADESTSTAYMELSSLRSEDTAVYYCARGAGYYGDKDPMDVWGQGTTVTVSS VL: DIQLTQSPSSLSASVGDRVTITCRASQSISSYLNWYQQKPGKAPKLLIYAASSLQSGVPSRFSGSGSGTDFTLTISSLQPEDFATYYCQQVLHTITFGGGTKVEIK", "EC50": 0.03},
      {"binder": "42Y073-1A01-100 (antibody, V domains shown) VH: QVQLVQSGAEVKKPGASVKVSCKASGYTFTTYRMHWVRQAPGQGLEWMGIINPSGGLTQYAQKFQGRVTMTRDTSTSTVYMELSSLRSEDTAVYYCARETAYYTTKGNWFDPWGQGTLVTVSS VL: DIQMTQSPSSLSASVGDRVTITCRASQSISSYLNWYQQKPGKAPKLLIYAASSLQSGVPSRFSGSGSGTDFTLTISSLQPEDFATYYCQQSLYPPRTFGGGTKVEIK", "EC50": 0.01},
      {"binder": "42Y073-1A01-191 (antibody, V domains shown) VH: QVQLVQSGAEVKKPGASVKVSCKASGYTFTKYRMHWVRQAPGQGLEWMGIINPQGGSTSYAQKFQGRVTMTRDTSTSTVYMELSSLRSEDTAVYYCARETAYYTTKGNWFDPWGQGTLVTVSA VL: DIQMTQSPSSLSASVGDRVTITCRASQSISSYLNWYQQKPGKAPKLLIYAASSLQSGVPSRFSGSGSGTDFTLTISSLQPEDFATYYCQQSLYPPRTFGGGTKVEIK", "EC50": 0.38},
      {"binder": "42Y073-86F04-4 (antibody, V domains shown) VH: QVQLVQSGAEVKKPGSSVKVSCKASGGTFESEAISWVRQAPGQGLEWMGGIIPIFGRARYAQKFQGRVTITADESTSTAYMELSSLRSEDTAVYYCARLLGESGMDVWGQGTTVTVSS VL: DIQMTQSPSSLSASVGDRVTITCRASQSISSYLNWYQQKPGKAPKLLIYAASSLQSGVPSRFSGSGSGTDFTLTISSLQPEDFATYYCQQPYFSPPTFGGGTKVEIK", "EC50": 0.05},
      {"binder": "42Y073-86F04-5 (antibody, V domains shown) VH: QVQLVQSGAEVKKPGSSVKVSCKASGGTFSSHAISWVRQAPGQGLEWMGGIIPIFGRGKYAQKFQGRVTITADESTSTAYMELSSLRSEDTAVYYCARLLGESGMDVWGQGTTVTVSS VL: DIQMTQSPSSLSASVGDRVTITCRASQSISSYLNWYQQKPGKAPKLLIYAASSLQSGVPSRFSGSGSGTDFTLTISSLQPEDFATYYCQQPYFSPPTFGGGTKVEIK", "EC50": 0.05},
      {"binder": "42Y073-86F04-6 (antibody, V domains shown) VH: QVQLVQSGAEVKKPGSSVKVSCKASGGTFSGHAISWVRQAPGQGLEWMGGIIPIFGRARYAQKFQGRVTITADESTSTAYMELSSLRSEDTAVYYCARLLGESGMDVWGQGTTVTVSS VL: DIQMTQSPSSLSASVGDRVTITCRASQSISSYLNWYQQKPGKAPKLLIYAASSLQSGVPSRFSGSGSGTDFTLTISSLQPEDFATYYCQQPYFSPPTFGGGTKVEIK", "EC50": 0.01},
      {"binder": "42Y073-1A01-103 (antibody, V domains shown) VH: QVQLVQSGAEVKKPGASVKVSCKASGYTFTAYQMHWVRQAPGQGLEWMGIINPAGGWTSYAQKFQGRVTMTRDTSTSTVYMELSSLRSEDTAVYYCARETAYYTTKGNWFDPWGQGTLVTVSS VL: DIQMTQSPSSLSASVGDRVTITCRASQSISSYLNWYQQKPGKAPKLLIYAASSLQSGVPSRFSGSGSGTDFTLTISSLQPEDFATYYCQQSLYPPRTFGGGTKVEIK", "EC50": 0.01},
      {"binder": "42Y073-86F04-3 (antibody, V domains shown) VH: QVQLVQSGAEVKKPGSSVKVSCKASGGTFSYNAISWVRQAPGQGLEWMGGIIPIMGTARYAQKFQGRVTITADESTSTAYMELSSLRSEDTAVYYCARLLGESGMDVWGQGTTVTVSS VL: DIQMTQSPSSLSASVGDRVTITCRASQSISSYLNWYQQKPGKAPKLLIYAASSLQSGVPSRFSGSGSGTDFTLTISSLQPEDFATYYCQQPYFSPPTFGGGTKVEIK", "EC50": 0.09},
      {"binder": "42Y073-86F04-18 (antibody, V domains shown) VH: QVQLVQSGAEVKKPGSSVKVSCKASGGTFSSRAISWVRQAPGQGLEWMGGIIPIMGTARYAQKFQGRVTITADESTSTAYMELSSLRSEDTAVYYCARLLGESGMDVWGQGTTVTVSS VL: DIQMTQSPSSLSASVGDRVTITCRASQSISSYLNWYQQKPGKAPKLLIYAASSLQSGVPSRFSGSGSGTDFTLTISSLQPEDFATYYCQQPYFSPPTFGGGTKVEIK", "EC50": 0.01},
      {"binder": "42Y073-1A01-85 (antibody, V domains shown) VH: QVQLVQSGAEVKKPGASVKVSCKASGYTFTSYPMHWVRQAPGQGLEWMGIINPSGGFTSYAQKFQGRVTMTRDTSTSTVYMELSSLRSEDTAVYYCARETAYYTTKGNWFDPWGQGTLVTVSA VL: DIQMTQSPSSLSASVGDRVTITCRASQSISSYLNWYQQKPGKAPKLLIYAASSLQSGVPSRFSGSGSGTDFTLTISSLQPEDFATYYCQQSLYPPRTFGGGTKVEIK", "EC50": 0.32}
    ]}
  ]
}
